# Results taken from patent publication US7612163B1, “Prokineticin 2β peptide and its use” (Janssen Pharmaceutica N.V., priority 2004, dated 2009).
# Ends that are not written are not given here.
# Legend:
# [1] = biological target: T1, human prokineticin receptor 1 (PKR1) (human, UniProt Q8TCW9 1-393); test: cell-based or functional assay
# [2] = biological target: T2, human prokineticin receptor 2 (PKR2) (human, UniProt Q8NFJ6 1-384); test: cell-based or functional assay
# [3] = biological target: T1, human prokineticin receptor 1 (PKR1); test: cell-based or functional assay; remark: listed apart in the source
# [4] = biological target: T2, human prokineticin receptor 2 (PKR2); test: cell-based or functional assay; remark: listed apart in the source
# [5] = biological target: T1, human prokineticin receptor 1 (PKR1); test: radioligand competition against 100 pM 125I-PK2-f on COS-7 cells expressing PKR1
# Procedure: (§1) Radio-Ligand Binding Assays. PKR1 and PKR2 in the expression vector pCIneo (Promega) were transfected into COS-7 cells using LipofectAmine (Invitrogen). Two days after transfection, cells were detached from the culture dishes by 10 mM EDTA in PBS, washed with Dulbecco's Modified Eagle's Medium (DMEM) and seeded in 96-well opaque polylysine-coated plates (BD Biosciences, San Jose, Calif.) at a density of 50,000 cells per well. […] The binding assays were performed in DMEM plus 50 mM HEPES, pH 7.2 and 1% bovine serum albumin in a final volume of 100 µl. The binding assays were carried out at room temperature for 1 hour. After the plates were washed three times with ice cold PBS, Microscint-40 (Packard, Meriden, Conn.) was added and the plates were counted on a Topcount (Packard).
# (§2) Different concentrations of PK1, PK2 or PK2β were added to the assays as the competitors. All assays were performed in triplicates. The results are mean values (±S.E.M) of triplicates. Figure 4B:
# (§3) Prokineticins bind PKR1 and PKR2 with different affinities. With the purified PK2β available, it was investigated whether PK2β binds PKR1 or PKR2 in comparison with PK1 and PK2. […] Membranes from COS-7 cells transiently expressing PKR1 and PKR2 were used in competition binding assays. The results (FIG. 4A) indicate that PK1, PK2, and PK2β all bind PKR1 with high affinities, with the rank order of potency PK2>PK2β≅PK1.
# [6] = biological target: T2, human prokineticin receptor 2 (PKR2); test: radioligand competition against 100 pM 125I-PK2-f on COS-7 cells expressing PKR2
# Procedure: as §1, §2, §3
# [7] = biological target: T1, human prokineticin receptor 1 (PKR1); test: radioligand binding on PKR1 expressing cells
# [8] = biological target: T2, human prokineticin receptor 2 (PKR2); test: radioligand binding on PKR2 expressing cells
# [9] = biological target: PKR1 (Homo sapiens, UniProt Q8TCW9); test: Radioligand competition binding assay (125I-PK2-f), PKR1 expressing COS-7 cells; parameters: The full-length cDNA coding regions for both PKR1 and PKR2 were PCR-amplified from human fetal brain cDNA; expressed in transfected cells; host or cells: COS-7 (transient, pCIneo); settings: FIG. 4A
# Procedure: (§4) FIGS. 4A and 4B graphically illustrate that PKs bind the PKR1 and PKR2 with different affinities. COS-7 cells transiently expressing PKR1 or PKR2 were seeded to 96-well plates. ^125I-labeled PK2-f was added to each well at a final concentration of 100 pM. Different concentrations of PK1, PK2 or PK2β were added to the assays as the competitors. All assays were performed in triplicates. The results are mean values (±S.E.M) of triplicates. FIG. 4A provides the results of the binding assay using PKR1 expressing cells.
# (§5) Expression, purification, and iodination of C-terminal FLAG-tagged PK2. C-terminal FLAG-tagged PK2 (PK2-f) was constructed as described (Soga et al., 2002). Two primers P9: ATCGAGAATTCGCCACCATGAGGAGCCTGTGCTGCGCCC (SEQ.ID.NO.:11) and P10: GGATCCCTACTTATCGTCGTCATCCTTATAATCCTTTTGGGCTAAACA (SEQ.ID.NO.:12) were used to amplify human whole brain cDNA (Clontech). The PCR-amplified PK2-f was cloned into a mammalian expression vector pCMV-sport1 (Invitrogen). The resulting clones were sequenced to confirm the identities and transfected into COS-7 cells using LipofectAmine (Invitrogen). Three days after transfection, the cell culture supernatant was collected and run through an ANTI-FLAG M2 agarose (Sigma) affinity column. The column was washed with PBS and eluted with […] Glycine HCl, pH 3.0. The eluted protein fraction was immediately neutralized with 1 M Tris-HCl, pH 8.0 and then further purified by reverse-phase HPLC using a C4 column (Vydac). The purified recombinant PK2-f protein was iodinated using Iodogen reagent (Pierce, Rockford, Ill.) and ^125I-NaI (PerkinElmer, Boston, Mass.) as described by Pierce. The iodinated PK2-f was purified by a G-50 (Amersham Pharmacia Biotech) gel filtration column.
# (§6) Radio-Ligand Binding Assays. PKR1 and PKR2 in the expression vector pCIneo (Promega) were transfected into COS-7 cells using LipofectAmine (Invitrogen). […] After the plates were washed three times with ice cold PBS, Microscint-40 (Packard, Meriden, Conn.) was added and the plates were counted on a Topcount (Packard).
# [10] = biological target: T3, PKR2 (Homo sapiens, UniProt Q8NFJ6); test: Radioligand competition binding assay (125I-PK2-f), PKR2 expressing COS-7 cells; parameters: The full-length cDNA coding regions for both PKR1 and PKR2 were PCR-amplified from human fetal brain cDNA; expressed in transfected cells; host or cells: COS-7 (transient, pCIneo); settings: FIG. 4B
# Procedure: as §4, §5, §6
# [11] = biological target: T3, PKR2; test: cAMP accumulation (cAMP [125I] FlashPlate) in HEK 293 cells co-expressing PKR2/Gs; type: cell-based; parameters: The full-length cDNA coding regions for both PKR1 and PKR2 were PCR-amplified from human fetal brain cDNA; expressed in transfected cells; host or cells: HEK293 (transient, pCIneo, co-transfected with Gs plasmid); settings: FIG. 8C
# Procedure: FIGS. 8B and 8C illustrate results from HEK 293 cells co-expressing PKR1/Gs (FIG. 8B) or PKR2/Gs (FIG. 8C) stimulated with different PKs at various concentrations (the accumulated cAMP was measured by a cAMP [^125I] FlashPlate Assay kit; the results are mean values (±S.E.M) of triplicate experiments (legend: ▪, PK1; ▴, PK2; ▾, PK2β)).
# In a different experiment, PKR1 and PKR2 in the expression vector pCIneo (Promega) were co-transfected with the Gs expression plasmid into HEK293 cells using LipofectAmine (Invitrogen). Two days after transfection, cells were detached with 10 mM EDTA in PBS, resuspended in Dulbecco's Modified Eagle's Medium/F12 (DMEM/F12) media, and then plated on 96-well plates at a density of 50,000 cells per well. Two hours after the seeding, cells culture medium was replaced with DMEM/F12 containing 2 mM isobutylmethylxanthine (Sigma) and incubated for 30 min. Different concentrations of PK1, PK2 or PK2β were added to cells and incubated for an additional 30 min in a final volume of 200 μl/well. The reaction was stopped and cAMP was extracted by adding 20 μl of 0.5 N HCl to each well. Cell culture media were tested for cAMP concentrations by the cAMP [^125I] FlashPlate Assay kit (PerkinElmer) as described by the manufacturer.
# T2 sequence (Q8NFJ6 whole entry): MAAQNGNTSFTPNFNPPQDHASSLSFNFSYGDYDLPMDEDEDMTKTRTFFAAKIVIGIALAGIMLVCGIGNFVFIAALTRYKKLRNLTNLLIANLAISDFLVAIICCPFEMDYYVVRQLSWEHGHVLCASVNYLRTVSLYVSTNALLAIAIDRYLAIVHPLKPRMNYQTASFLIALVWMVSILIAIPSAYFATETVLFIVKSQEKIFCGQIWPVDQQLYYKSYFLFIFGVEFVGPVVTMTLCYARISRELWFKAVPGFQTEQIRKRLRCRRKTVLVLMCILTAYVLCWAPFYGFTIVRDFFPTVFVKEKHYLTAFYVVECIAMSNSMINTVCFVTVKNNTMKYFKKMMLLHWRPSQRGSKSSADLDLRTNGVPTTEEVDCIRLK
# T3 sequence (Q8NFJ6 whole entry): as above
# T1 sequence (Q8TCW9 whole entry): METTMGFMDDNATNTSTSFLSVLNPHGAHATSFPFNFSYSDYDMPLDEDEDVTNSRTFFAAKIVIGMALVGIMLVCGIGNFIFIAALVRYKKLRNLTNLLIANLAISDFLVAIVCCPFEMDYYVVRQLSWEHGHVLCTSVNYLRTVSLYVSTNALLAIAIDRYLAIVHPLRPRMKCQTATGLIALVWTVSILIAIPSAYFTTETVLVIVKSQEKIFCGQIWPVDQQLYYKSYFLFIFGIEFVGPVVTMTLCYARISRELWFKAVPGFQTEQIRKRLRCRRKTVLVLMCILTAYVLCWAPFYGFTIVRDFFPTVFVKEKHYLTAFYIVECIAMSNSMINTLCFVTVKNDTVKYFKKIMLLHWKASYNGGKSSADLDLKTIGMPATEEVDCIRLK
# Sequence of PKR1 (Q8TCW9 whole entry): as above
molecule,measurement,setting,value
"human prokineticin 2 (PK2) (ligand, Made in COS-7 cells with an N-terminal FLAG tag that was removed with enterokinase, then HPLC purified; also called mammalian Bv8) AVITGACDKDSQCGGGMCCAVSIWVKSIRICTPMGKLGDSCHPLTRKVPFFGRRMHHTCPCLPGLACLRTSFNRFICLAQK",EC50 for Ca2+ mobilization in PKR expressing HEK 293 cells,[1],0.8 nM
same,EC50 for Ca2+ mobilization in PKR expressing HEK 293 cells,[2],3.6 nM
same,"EC50 for stimulation of cAMP accumulation (β-galactosidase reporter), SK-N-MC cells",[3],1.27 nM
same,"EC50 for stimulation of cAMP accumulation, HEK 293 cells",[3],3.17 nM
same,"EC50 for stimulation of cAMP accumulation (β-galactosidase reporter), SK-N-MC cells",[4],12.1 nM
same,"EC50 for stimulation of cAMP accumulation, HEK 293 cells",[4],41 nM
same,IC50,[5],4.5 nM
same,IC50,[6],6.4 nM
"125I-labeled C-terminal FLAG-tagged PK2 (ligand, 125I on the Tyr in the FLAG-tag, Expressed from human PK2 cDNA with its own signal peptide and secreted by COS-7 cells; also called PK2-f; not shown: C-terminal FLAG tag) AVITGACDKDSQCGGGMCCAVSIWVKSIRICTPMGKLGDSCHPLTRKVPFFGRRMHHTCPCLPGLACLRTSFNRFICLAQK",binding result,[7],binds
same,binding result,[8],binds
"prokineticin 2 (protein, recombinant human PK2 peptide expressed in COS-7 cells) AVITGACDKDSQCGGGMCCAVSIWVKSIRICTPMGKLGDSCHPLTRKVPFFGRRMHHTCPCLPGLACLRTSFNRFICLAQK","Binding to PKR1, in words",[9],high affinities
same,"Binding to PKR2, in words",[10],high affinity
same,"cAMP accumulation in PKR2 expressing HEK293 cells, in words",[11],high-potency ligands
"human prokineticin 1 (PK1) mature peptide (ligand, UniProt P58294 20-105, looked up, mature; also called EG-VEGF) AVITGACERDVQCGAGTCCAISLWLRGLRMCTPLGREGEECHPGSHKVPFFRKRKHHTCPCLPNLLCSRFPDGRYRCSMDLKNINF",EC50 for Ca2+ mobilization in PKR expressing HEK 293 cells,[1],1.1 nM
same,EC50 for Ca2+ mobilization in PKR expressing HEK 293 cells,[2],7.7 nM
same,"EC50 for stimulation of cAMP accumulation (β-galactosidase reporter), SK-N-MC cells",[3],8.34 nM
same,"EC50 for stimulation of cAMP accumulation, HEK 293 cells",[3],16.8 nM
same,"EC50 for stimulation of cAMP accumulation (β-galactosidase reporter), SK-N-MC cells",[4],20 nM
same,"EC50 for stimulation of cAMP accumulation, HEK 293 cells",[4],60 nM
same,IC50,[5],27.6 nM
same,IC50,[6],52.2 nM
"125I-labeled human PK1 (ligand, UniProt P58294 20-105, looked up, 125I at Tyr75, mature; Told of only in the discussion, as an attempted radioligand) AVITGACERDVQCGAGTCCAISLWLRGLRMCTPLGREGEECHPGSHKVPFFRKRKHHTCPCLPNLLCSRFPDGRYRCSMDLKNINF",binding result,[7],binds
same,binding result,[8],binds
"prokineticin 1 (protein, recombinant human PK1 mature peptide, also known as endocrine gland vascular endothelial growth factor) AVITGACERDVQCGAGTCCAISLWLRGLRMCTPLGREGEECHPGSHKVPFFRKRKHHTCPCLPNLLCSRFPDGRYRCSMDLKNINF","Binding to PKR1, in words",[9],high affinities
same,"Binding to PKR2, in words",[10],high affinity
same,"cAMP accumulation in PKR2 expressing HEK293 cells, in words",[11],high-potency ligands
"human PK2β mature peptide (ligand, ends and bridges not checked; cysteine pairing not given here, Proteolytically processed form of PK2L secreted by COS-7 cells; The FLAG tag was removed with enterokinase; also called processed product of PK2L) AVITGACDKDSQCGGGMCCAVSIWVKSIRICTPMGKLGDSCHPLTRKNNFGNGRQE",EC50 for Ca2+ mobilization in PKR expressing HEK 293 cells,[1],1.5 nM
same,EC50 for Ca2+ mobilization in PKR expressing HEK 293 cells,[2],80 nM
same,"EC50 for stimulation of cAMP accumulation, HEK 293 cells",[3],23.4 nM
same,"EC50 for stimulation of cAMP accumulation, HEK 293 cells",[4],> 1000 nM
same,IC50,[5],34.6 nM
